Data from US20230416396A1 (Regeneron, published 2023).

Columns and labels:
[1] = target: T1, human 4-1BB expressed with a C-terminal myc-myc-hexahistidine tag (human, UniProt Q07011 24-186); test: SPR Biacore 8k, antibody captured by anti-human Fc, h4-1BB.mmH as analyte, 25 C
T1 construct: also called h4-1BB.mmH; REGN3584; not shown: C-terminal myc-myc-hexahistidine tag
Experimental: (§1) Equilibrium dissociation constants (KD values) for human 4-1BB expressed with a C-terminal myc-myc-hexahistidine tag (h4-1BB.mmH, REGN3584) or human 4-1BB expressed with a C-terminal murine Fc tag (h4-1BB.mFc, REGN3585) binding to purified anti-CD38×4-1BB 1+2 antibodies were determined using a real-time surface plasmon resonance biosensor using a Biacore 8k instrument. The CM5 Biacore sensor surface was derivatized by amine coupling with a monoclonal mouse anti-human Fc antibody (REGN2567). All Biacore binding studies were performed in a buffer composed of 0.01M HEPES pH 7.4, 0.15M NaCl, 3 mM EDTA, 0.05% v/v Surfactant P20 (HBS-EP running buffer). […] Antibody-reagent association was monitored for 5 minutes while dissociation in HBS-EP running buffer was monitored for 10 minutes. At the end of each cycle, the anti-CD38×4-1BB 1+2 antibody capture surface was regenerated using a 10 second injection of 20 mM phosphoric acid. All binding kinetics experiments were performed at 25° C.
(§2) Kinetic association (kₐ) and dissociation (kd) rate constants were determined by fitting the real-time sensorgrams to a 1:1 binding model using Cytiva Insight curve fitting software. Binding dissociation equilibrium constants (KD) and dissociative half-lives (t/2) were calculated from the kinetic rate constants as: […]

[2] = target: T2, human 4-1BB expressed with a C-terminal murine Fc tag (human, UniProt Q07011 24-186); test: SPR Biacore 8k, antibody captured by anti-human Fc, h4-1BB.mFc as analyte, 25 C
T2 construct: also called h4-1BB.mFc; REGN3585; not shown: C-terminal murine Fc tag
T2 sequence (Q07011 24-186 limits assumed): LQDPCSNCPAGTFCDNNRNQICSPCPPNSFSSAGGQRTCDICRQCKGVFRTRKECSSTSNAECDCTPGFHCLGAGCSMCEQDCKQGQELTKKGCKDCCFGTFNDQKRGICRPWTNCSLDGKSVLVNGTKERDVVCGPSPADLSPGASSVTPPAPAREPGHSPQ
Experimental: as §1, §2

human 4-1BB on cells [3] = target: T3, human 4-1BB on cells (human, UniProt Q07011 24-255); test: cell-based or functional assay
T3 sequence (Q07011 24-255): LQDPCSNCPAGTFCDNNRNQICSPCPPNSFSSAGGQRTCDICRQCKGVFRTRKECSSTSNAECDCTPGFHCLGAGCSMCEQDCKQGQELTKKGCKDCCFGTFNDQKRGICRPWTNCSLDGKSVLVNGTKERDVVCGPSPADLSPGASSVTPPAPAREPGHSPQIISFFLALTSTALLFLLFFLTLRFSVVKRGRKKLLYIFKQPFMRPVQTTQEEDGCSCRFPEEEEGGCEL

human 4-1BB on cells [4] = target: T3, human 4-1BB on cells; test: cell-based or functional assay; remark: listed apart in the source
human 4-1BB on cells [5] = target: T3, human 4-1BB on cells; test: cell-based or functional assay; remark: listed apart in the source
[6] = target: T2, human 4-1BB expressed with a C-terminal …; test: SPR Biacore 4000, h4-1BB.mFc captured by anti-mouse Fc, antibody as analyte, 25 C
Experimental: Equilibrium dissociation constants (KD values) for human 4-1BB expressed with a C-terminal murine Fc tag (h4-1BB.mFc, REGN3585) binding to purified anti-CD38×4-1BB 1+2 antibodies were determined using a real-time surface plasmon resonance biosensor using a Biacore 4000 instrument. […] All Biacore binding studies were performed in a buffer composed of 0.01M HEPES pH 7.4, 0.15M NaCl, 3 mM EDTA, 0.05% v/v Surfactant P20 (HBS-EP running buffer). Different concentrations of CD38×4-1BB 1+2 constructs prepared in HBS-EP running buffer (ranging from 100 to 6.25 nM in 4-fold serial dilutions) were injected over the h4-1BB.mFc (REGN3585) captured surface at a flow rate of 30 μL/minute. Antibody-reagent association was monitored for 5 minutes while dissociation in HBS-EP running buffer was monitored for 10 minutes. At the end of each cycle, the h4-1BB.mFc capture surface was regenerated using a 40 sec injection of 10 mM glycine, pH 1.5. All binding kinetics experiments were performed at 25° C.
as §2

T1 sequence (Q07011 24-186 limits assumed): as the sequence (Q07011 24-186 limits assumed) above

B1: REGN9682 (bispecific antibody, human IgG4 S228P, kappa)
heavy 1: EVQLVESGGGLVQPGRSLRLSCGASGFTFDDYVMHWVRQIPGKGLEWVAGISWNSGSIGYADSVKGRFTISRDNAKNSLYLQMNSLRAEDTALYFCAKDHIDPYSSSLYYYYGMDVWGQGTTVTVSSASTKGPSVFPLAPCSRSTSESTAALGCLVKDYFPEPVTVSWNSGALTSGVHTFPAVLQSSGLYSLSSVVTVPSSSLGTKTYTCNVDHKPSNTKVDKRVGGGGSGGGGSGGGGSEVQLVESGGGLVQPGRSLRLSCGASGFTFDDYVMHWVRQIPGKGLEWVAGISWNSGSIGYADSVKGRFTISRDNAKNSLYLQMNSLRAEDTALYFCAKDHIDPYSSSLYYYYGMDVWGQGTTVTVSSASTKGPSVFPLAPCSRSTSESTAALGCLVKDYFPEPVTVSWNSGALTSGVHTFPAVLQSSGLYSLSSVVTVPSSSLGTKTYTCNVDHKPSNTKVDKRVESKYGPPCPPCPAPPVAGPSVFLFPPKPKDTLMISRTPEVTCVVVDVSQEDPEVQFNWYVDGVEVHNAKTKPREEQFNSTYRVVSVLTVLHQDWLNGKEYKCKVSNKGLPSSIEKTISKAKGQPREPQVYTLPPSQEEMTKNQVSLTCLVKGFYPSDIAVEWESNGQPENNYKTTPPVLDSDGSFFLYSRLTVDKSRWQEGNVFSCSVMHEALHNRFTQKSLSLSPGK
heavy 2: EVQLVESGGGLVQPGRSLRLSCAASGFTFDDYAMHWVRQAPGKGLEWVSGISWKSDNIGYADSVKGRFTISRDNAKNSLYLQMNSLRAEDTALYYCAKALGGWKFDYYYGMDVWGQGTTVTVSSASTKGPSVFPLAPCSRSTSESTAALGCLVKDYFPEPVTVSWNSGALTSGVHTFPAVLQSSGLYSLSSVVTVPSSSLGTKTYTCNVDHKPSNTKVDKRVESKYGPPCPPCPAPPVAGPSVFLFPPKPKDTLMISRTPEVTCVVVDVSQEDPEVQFNWYVDGVEVHNAKTKPREEQFNSTYRVVSVLTVLHQDWLNGKEYKCKVSNKGLPSSIEKTISKAKGQPREPQVYTLPPSQEEMTKNQVSLTCLVKGFYPSDIAVEWESNGQPENNYKTTPPVLDSDGSFFLYSRLTVDKSRWQEGNVFSCSVMHEALHNHYTQKSLSLSLGK
light: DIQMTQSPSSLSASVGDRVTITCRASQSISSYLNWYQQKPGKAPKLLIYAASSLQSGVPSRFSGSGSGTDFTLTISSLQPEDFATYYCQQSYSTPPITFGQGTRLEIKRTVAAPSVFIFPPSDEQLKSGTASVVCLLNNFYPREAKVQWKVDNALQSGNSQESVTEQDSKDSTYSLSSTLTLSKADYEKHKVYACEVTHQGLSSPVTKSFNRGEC
notes: 1+2 format, hIgG4P-PVA; The linker between the two 4-1BB Fabs is (G4S)3; also called CD38x4-1BB (1 + 2), (G4S)3; 26812P2 x 35333P2 (IN) + 35333P2 (OUT)
[1]
  100 nM h4-1BB.mmH Bind (RU): 107 RU
  Kd: 13800 pM
  koff: 0.00494 s⁻¹
  kon: 358000 M⁻¹ s⁻¹
  t½: 2.3 min
[2]
  100 nM h4-1BB.mFc Bind (RU): 283 RU
  Kd: 860 pM
  koff: 0.000177 s⁻¹
  kon: 206000 M⁻¹ s⁻¹
  t½: 65.3 min
Human 4-1BB on cells [3]
  EC50 of IL-2 release, T cells + HEK293/CD20/CD38 + REGN2281: 60.7 pM
  EC50 of IL-2 release, T cells + MOLP-8 + REGN5458: 133 pM
  EC50 of IL-2 release, T cells + NALM-6: 71.7 pM
  MAX IL-2 release, T cells + HEK293/CD20 + REGN2281: 52 pg/mL
  MAX IL-2 release, T cells + HEK293/CD20/CD38 + REGN2281: 912 pg/mL
  MAX IL-2 release, T cells + MOLP-8 + IsoC: 96 pg/mL
  MAX IL-2 release, T cells + MOLP-8 + REGN5458: 79 pg/mL
  MAX IL-2 release, T cells + NALM-6: 205 pg/mL
Human 4-1BB on cells [4]
  EC50 of luciferase activity, HEK293/NFkB-Luc/h4-1BB reporter + OPM2: 21.9 pM
  MAX luciferase activity, HEK293/NFkB-Luc/h4-1BB reporter + HEK293/CD20: 1e+06 RLU
  MAX luciferase activity, HEK293/NFkB-Luc/h4-1BB reporter + HEK293/CD20/CD38: 2.4e+06 RLU
  MAX luciferase activity, HEK293/NFkB-Luc/h4-1BB reporter + MOLP-8: 2.2e+06 RLU
  MAX luciferase activity, HEK293/NFkB-Luc/h4-1BB reporter + OPM2: 2.1e+06 RLU
Human 4-1BB on cells [5]
  EC50 of IFNγ release, T cells + HEK293/CD20/CD38 + REGN2281: 52.6 pM
  EC50 of IFNγ release, T cells + MOLP-8 + REGN5458: 72.5 pM
  EC50 of IFNγ release, T cells + NALM-6: 41.9 pM
  MAX IFNγ release, T cells + HEK293/CD20 + REGN2281: 1570 pg/mL
  MAX IFNγ release, T cells + HEK293/CD20/CD38 + REGN2281: 5270 pg/mL
  MAX IFNγ release, T cells + MOLP-8 + IsoC: 161 pg/mL
  MAX IFNγ release, T cells + MOLP-8 + REGN5458: 3410 pg/mL
  MAX IFNγ release, T cells + NALM-6: 658 pg/mL
[6]
  100 nM Ab Bind (RU): 234 RU
  Kd: 716 pM
  koff: 0.000308 s⁻¹
  kon: 430000 M⁻¹ s⁻¹
  t½: 37.6 min

B2: REGN9686 (bispecific antibody, human IgG4 S228P, kappa)
heavy 1: EVQLVESGGGLVQPGRSLRLSCGASGFTFDDYVMHWVRQIPGKGLEWVAGISWNSGSIGYADSVKGRFTISRDNAKNSLYLQMNSLRAEDTALYFCAKDHIDPYSSSLYYYYGMDVWGQGTTVTVSSASTKGPSVFPLAPCSRSTSESTAALGCLVKDYFPEPVTVSWNSGALTSGVHTFPAVLQSSGLYSLSSVVTVPSSSLGTKTYTCNVDHKPSNTKVDKRVESKYGPPGGGGSGGGGSEVQLVESGGGLVQPGRSLRLSCGASGFTFDDYVMHWVRQIPGKGLEWVAGISWNSGSIGYADSVKGRFTISRDNAKNSLYLQMNSLRAEDTALYFCAKDHIDPYSSSLYYYYGMDVWGQGTTVTVSSASTKGPSVFPLAPCSRSTSESTAALGCLVKDYFPEPVTVSWNSGALTSGVHTFPAVLQSSGLYSLSSVVTVPSSSLGTKTYTCNVDHKPSNTKVDKRVESKYGPPCPPCPAPPVAGPSVFLFPPKPKDTLMISRTPEVTCVVVDVSQEDPEVQFNWYVDGVEVHNAKTKPREEQFNSTYRVVSVLTVLHQDWLNGKEYKCKVSNKGLPSSIEKTISKAKGQPREPQVYTLPPSQEEMTKNQVSLTCLVKGFYPSDIAVEWESNGQPENNYKTTPPVLDSDGSFFLYSRLTVDKSRWQEGNVFSCSVMHEALHNRFTQKSLSLSPGK
heavy 2: B1 heavy 2
light: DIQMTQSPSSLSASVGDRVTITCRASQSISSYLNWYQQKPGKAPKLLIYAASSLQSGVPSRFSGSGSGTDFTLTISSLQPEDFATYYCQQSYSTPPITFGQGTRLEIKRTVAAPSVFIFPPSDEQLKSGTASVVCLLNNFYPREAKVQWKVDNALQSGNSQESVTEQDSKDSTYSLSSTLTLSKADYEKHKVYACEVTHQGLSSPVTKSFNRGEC
notes: 1+2 format, hIgG4P-PVA; The linker between the two 4-1BB Fabs is (G4S)2; also called CD38x4-1BB (1 + 2), (G4S)2; 26812P2 x 35333P2 (IN) + 35333P2 (OUT)
[1]
  100 nM h4-1BB.mmH Bind (RU): 101 RU
  Kd: 14800 pM
  koff: 0.00474 s⁻¹
  kon: 319000 M⁻¹ s⁻¹
  t½: 2.4 min
[2]
  100 nM h4-1BB.mFc Bind (RU): 267 RU
  Kd: 1200 pM
  koff: 0.000205 s⁻¹
  kon: 171000 M⁻¹ s⁻¹
  t½: 56.3 min
Human 4-1BB on cells [3]
  EC50 of IL-2 release, T cells + HEK293/CD20/CD38 + REGN2281: 45.3 pM
  EC50 of IL-2 release, T cells + MOLP-8 + IsoC: 36.1 pM
  EC50 of IL-2 release, T cells + MOLP-8 + REGN5458: 83.3 pM
  EC50 of IL-2 release, T cells + NALM-6: 72.3 pM
  MAX IL-2 release, T cells + HEK293/CD20 + REGN2281: 57 pg/mL
  MAX IL-2 release, T cells + HEK293/CD20/CD38 + REGN2281: 709 pg/mL
  MAX IL-2 release, T cells + MOLP-8 + IsoC: 90 pg/mL
  MAX IL-2 release, T cells + MOLP-8 + REGN5458: 62 pg/mL
  MAX IL-2 release, T cells + NALM-6: 169 pg/mL
Human 4-1BB on cells [4]
  EC50 of luciferase activity, HEK293/NFkB-Luc/h4-1BB reporter + OPM2: 18 pM
  MAX luciferase activity, HEK293/NFkB-Luc/h4-1BB reporter + HEK293/CD20: 1.1e+06 RLU
  MAX luciferase activity, HEK293/NFkB-Luc/h4-1BB reporter + HEK293/CD20/CD38: 2.4e+06 RLU
  MAX luciferase activity, HEK293/NFkB-Luc/h4-1BB reporter + MOLP-8: 2.2e+06 RLU
  MAX luciferase activity, HEK293/NFkB-Luc/h4-1BB reporter + OPM2: 2.1e+06 RLU
Human 4-1BB on cells [5]
  EC50 of IFNγ release, T cells + HEK293/CD20/CD38 + REGN2281: 87.4 pM
  EC50 of IFNγ release, T cells + MOLP-8 + REGN5458: 102 pM
  MAX IFNγ release, T cells + HEK293/CD20 + REGN2281: 1450 pg/mL
  MAX IFNγ release, T cells + HEK293/CD20/CD38 + REGN2281: 6820 pg/mL
  MAX IFNγ release, T cells + MOLP-8 + IsoC: 85 pg/mL
  MAX IFNγ release, T cells + MOLP-8 + REGN5458: 3890 pg/mL
  MAX IFNγ release, T cells + NALM-6: 651 pg/mL
[6]
  100 nM Ab Bind (RU): 232 RU
  Kd: 717 pM
  koff: 0.000337 s⁻¹
  kon: 470000 M⁻¹ s⁻¹
  t½: 34.3 min
